Data from patent US20240383990A1 (DIAGONAL THERAPEUTICS, published 2024).

T1: IL-18 receptor (IL-18Rα and IL-18Rβ) on HEK-Blue IL-18 cells (UniProt Q13478 19-541; O95256 20-599, limits assumed)
T1 sequence (looked up) 1: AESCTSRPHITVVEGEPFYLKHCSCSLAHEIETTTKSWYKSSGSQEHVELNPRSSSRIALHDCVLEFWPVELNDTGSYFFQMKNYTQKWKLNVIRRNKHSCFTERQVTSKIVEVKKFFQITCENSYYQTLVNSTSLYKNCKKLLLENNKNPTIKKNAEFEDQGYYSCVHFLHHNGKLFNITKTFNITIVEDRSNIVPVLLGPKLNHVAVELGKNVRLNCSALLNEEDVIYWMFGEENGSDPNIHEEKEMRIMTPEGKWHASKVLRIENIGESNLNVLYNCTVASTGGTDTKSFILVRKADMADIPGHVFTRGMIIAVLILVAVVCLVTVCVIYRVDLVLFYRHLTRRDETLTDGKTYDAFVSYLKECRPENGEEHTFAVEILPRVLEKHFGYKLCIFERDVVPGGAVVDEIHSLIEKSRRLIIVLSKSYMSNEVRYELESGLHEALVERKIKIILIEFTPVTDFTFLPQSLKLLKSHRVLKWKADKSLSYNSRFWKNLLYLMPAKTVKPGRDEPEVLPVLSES
T1 sequence (looked up) 2: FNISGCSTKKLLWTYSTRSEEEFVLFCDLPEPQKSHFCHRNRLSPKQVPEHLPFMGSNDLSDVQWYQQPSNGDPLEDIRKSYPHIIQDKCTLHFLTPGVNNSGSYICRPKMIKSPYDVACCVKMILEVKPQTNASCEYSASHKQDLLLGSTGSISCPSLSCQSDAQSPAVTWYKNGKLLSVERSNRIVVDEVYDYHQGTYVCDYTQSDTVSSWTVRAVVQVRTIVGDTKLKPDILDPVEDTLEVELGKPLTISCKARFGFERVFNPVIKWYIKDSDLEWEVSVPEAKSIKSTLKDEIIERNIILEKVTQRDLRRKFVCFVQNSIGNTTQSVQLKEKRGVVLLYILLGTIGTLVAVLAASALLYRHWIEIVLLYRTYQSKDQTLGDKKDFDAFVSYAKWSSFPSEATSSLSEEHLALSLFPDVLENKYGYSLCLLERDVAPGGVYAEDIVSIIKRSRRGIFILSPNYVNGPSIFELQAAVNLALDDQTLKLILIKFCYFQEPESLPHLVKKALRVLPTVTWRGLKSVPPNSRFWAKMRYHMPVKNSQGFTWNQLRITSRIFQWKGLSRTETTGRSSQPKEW

B1: DGL212 (bispecific antibody)
chain 1: QVQLVESGGGLVQAGGSLRLSCAASGRTFSKHAMGWFRQAPGKEREFVAAIDWSGGSTYYADSVKGRFTISRDNAKNTVYLQMDSLKPEDTAVYYCAADSYTDYAQLWLPELESEYDYWGQGTLVTVSSDKTHTCPPCPAPEAAGAPSVFLFPPKPKDTLMISRTPEVTCVVVDVSHEDPEVKFNWYVDGVEVHNAKTKPREEQYNSTYRVVSVLTVLHQDWLNGKEYKCKVSNKALPAPIEKTISKAKGQPREPQVCTLPPSRDELTKNQVSLSCAVKGFYPSDIAVEWESNGQPENNYKTTPPVLDSDGSFFLVSKLTVDKSRWQQGNVFSCSVMHEALHNHYTQKSLSLSPGWSHPQFEK
chain 2: not shown
B2: DGL213 (bispecific antibody)
chain 1: B1 chain 1
chain 2: QLQLVESGGGLVQAGGSLRLSCAASRSITFSHNVMGWYRQAPGKQRELVASIGSGGSTNYVDSVKGRATISRDNAKKTVYLQMNSLKPEDTAVYYCGVVVGVYRGSLGQGTLVTVSSCPPCPAPEAAGAPSVFLFPPKPKDTLMISRTPEVTCVVVDVSHEDPEVKFNWYVDGVEVHNAKTKPREEQYNSTYRVVSVLTVLHQDWLNGKEYKCKVSNKALPAPIEKTISKAKGQPREPQVYTLPPCRDELTKNQVSLWCLVKGFYPSDIAVEWESNGQPENNYKTTPPVLDSDGSFFLYSKLTVDKSRWQQGNVFSCSVMHEALHNHYTQKSLSLSPGEPEA
B3: DGL214 (bispecific antibody)
chain 1: B1 chain 1
chain 2: not shown
B4: DGL215 (bispecific antibody)
chain 1: B1 chain 1
chain 2: QLQLVESGGGLVQAGGSLRLSCAASRSITFSHNVMGWYRQAPGKQRELVASIGSGGSTNYVDSVKGRATISRDNAKKTVYLQMNSLKPEDTAVYYCGVVVGVYRGSLGQGTLVTVSSPLAPCPPCPAPEAAGAPSVFLFPPKPKDTLMISRTPEVTCVVVDVSHEDPEVKFNWYVDGVEVHNAKTKPREEQYNSTYRVVSVLTVLHQDWLNGKEYKCKVSNKALPAPIEKTISKAKGQPREPQVYTLPPCRDELTKNQVSLWCLVKGFYPSDIAVEWESNGQPENNYKTTPPVLDSDGSFFLYSKLTVDKSRWQQGNVFSCSVMHEALHNHYTQKSLSLSPGEPEA
B5: DGL216 (bispecific antibody)
chain 1: B1 chain 1
chain 2: QLQLVESGGGLVQAGGSLRLSCAASRSITFSHNVMGWYRQAPGKQRELVASIGSGGSTNYVDSVKGRATISRDNAKKTVYLQMNSLKPEDTAVYYCGVVVGVYRGSLGQGTLVTVSSGGGGSGGGGSGGGGSGGGGSCPPCPAPEAAGAPSVFLFPPKPKDTLMISRTPEVTCVVVDVSHEDPEVKFNWYVDGVEVHNAKTKPREEQYNSTYRVVSVLTVLHQDWLNGKEYKCKVSNKALPAPIEKTISKAKGQPREPQVYTLPPCRDELTKNQVSLWCLVKGFYPSDIAVEWESNGQPENNYKTTPPVLDSDGSFFLYSKLTVDKSRWQQGNVFSCSVMHEALHNHYTQKSLSLSPGEPEA
B6: DGL217 (bispecific antibody)
chain 1: B1 chain 1
chain 2: QLQLVESGGGLVQAGGSLRLSCAASRSITFSHNVMGWYRQAPGKQRELVASIGSGGSTNYVDSVKGRATISRDNAKKTVYLQMNSLKPEDTAVYYCGVVVGVYRGSLGQGTLVTVSSEKSYGPPCPPCPAPEAAGAPSVFLFPPKPKDTLMISRTPEVTCVVVDVSHEDPEVKFNWYVDGVEVHNAKTKPREEQYNSTYRVVSVLTVLHQDWLNGKEYKCKVSNKALPAPIEKTISKAKGQPREPQVYTLPPCRDELTKNQVSLWCLVKGFYPSDIAVEWESNGQPENNYKTTPPVLDSDGSFFLYSKLTVDKSRWQQGNVFSCSVMHEALHNHYTQKSLSLSPGEPEA

Biological target: T1, IL-18 receptor (IL-18Rα and IL-18Rβ) on …
Test: cell-based or functional assay

Binder | HEK-Blue assay, % human IL-18
B1 | 41 % of human IL18 activity

Biological target: T1, IL-18 receptor (IL-18Rα and IL-18Rβ) on …
Test: cell-based or functional assay
Remark: another data set of the same source

Binder | HEK-Blue assay, % human IL18 [% human IL18]
B2 | 42
B3 | 31
B4 | 40
B5 | 22
B6 | 45
